Results as given in publication PMC12337650 (iScience, 2025).

Target: the molecule itself
Assay: cross-linking

B1: hIRE1α(CD) (residues 469–977) (domain or fragment)
chain: HQQQQLQHQQFQKELEKIQLLQQQQQQLPFHPPGDTAQDGELLDTSGPYSESSGTSSPSTSPRASNHSLCSGSSASKAGSSPSLEQDDGDEETSVVIVGKISFCPKDVLGHGAEGTIVYRGMFDNRDVAVKRILPECFSFADREVQLLRESDEHPNVIRYFCTEKDRQFQYIAIELCAATLQEYVEQKDFAHLGLEPITLLQQTTSGLAHLHSLNIVHRDLKPHNILISMPNAHGKIKAMISDFGLCKKLAVGRHSFSRRSGVPGTEGWIAPEMLSEDCKENPTYTVDIFSAGCVFYYVISEGSHPFGKSLQRQANILLGACSLDCLHPEKHEDVIARELIEKMIAMDPQKRPSAKHVLKHPFFWSLEKQLQFFQDVSDRIEKESLDGPIVKQLERGGRAVVKMDWRENITVPLQTDLRKFRTYKGGSVRDLLRAMRNKKHHYRELPAEVRETLGSLPDDFVCYFTSRFPHLLAHTYRAMELCSHERLFQPYYFHEPPEPQPPVTPDAL
binding result: binds
